A word on the IC50: it is the midpoint of a concentration-inhibition curve. Lower therefore signals greater potency.

Bridge positions count the residues as written; N and C are the ends. Ends that are not written are not given here.

Test [1] has as its target Pentabody Pab-S (peptide S - camel Ig hinge - modified COMP pentamerization domain - 6xHis, homopentamer) (UniProt P35444). In words: soluble BCL1 IgM competing the binding of Pab-S to BCL1 cells.
A further test addresses BCL1 IgM idiotype. Briefly: RIA competition on plastic: inhibition of 125I labeled B1 IgG binding to coated BCL1 IgM. Further details: species or system mouse. The method, then:
RIA competition on plastic. Polyvinil 96-well plates are coated with BCL1 IgM at 3 μg/ml in PBS for 16 h at 4° C. and blocked with 2% MPBS for 1 h at 37° C. Different amounts of peptides are incubated with 10 nCi of ^125I labeled B1 IgG for 1 h at 37° C. The wells are washed with PBS containing 0.1% of Tween-20 and the amounts of radioactivity retained is measured with an automated multichannel Cobra II γ-counter.
Synthetic peptides corresponding to the selected sequences are prepared as outlined in Table 1. Cysteins containing peptide S is completely oxidized on air loosing two hydrogen atoms, as shown by Mass Spectroscopy, which is consistent with the cyclization of the peptide. All synthetic peptides are tested for binding inhibition of ^125I labeled B1 IgG to BCL1 IgM coated on plastic. The D and the S peptides inhibit binding with an IC50 of about 60 μM and 200 μM, respectively. No inhibition is seen with peptide F up to 2 mM, which is used, thereafter, as a negative control.
However, since spatial arrangement of target molecule on the surface may influence multivalent binding, the equilibrium binding parameters of Pab-S are determined directly on live BCL1 cells, which represent a more relevant biological surface. Purified Pab-S is labeled with ^125I and is shown to bind to BCL1 idiotype on the cell surface. […]

In test [2] the target is BCL1 soluble IgM (idiotype-bearing IgM purified from the serum of a mouse carrying the BCL1 B-cell lymphoma) (mouse). Briefly: RIA competition: peptide against 125I B1 IgG on BCL1 IgM coated on plastic.

Chain of UniProt P35444 (P35444 other isoform, or with tags, fused parts or gaps): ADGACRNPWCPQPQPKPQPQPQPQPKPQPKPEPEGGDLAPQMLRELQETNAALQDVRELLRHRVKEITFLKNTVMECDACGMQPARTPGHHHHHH

Turning to “BCL1 soluble IgM (idiotype-bearing IgM purified from the serum of a mouse carrying the BCL1 B-cell lymphoma) (antibody)”, the concentration for 80% displacement in test [1] is 100 nM.

On BCL1 IgM idiotype (synthetic peptides, BCL1 IgM coated on plastic), SVWRWLPYDKYE returned an IC50 of about 60 µM.

Consider “peptide F: Synthetic peptide, first ten amino acids of the sequence selected from the Fisch library (SEQ ID 3); negative control (TAAGLCEFDQ; Synthetic peptide ligand specific for mouse BCL1 idiotype selected from peptide libraries dispalyed on filamentous bacteriophage displaying random hexapeptides or decapeptides)”, for which the “inhibition of 125I labeled B1 IgG binding to BCL1 IgM coated on plastic” value in the test with BCL1 IgM idiotype (up to 2 mM peptide) is “No inhibition”.

The molecule SVWRWLPYDKYE [synthetic peptide D (selected from the Doorbar library)] gave an IC50 in test [2] of 60 µM.

ADGACRNPWC (disulfide 5-10 (inferred)) [synthetic peptide S (selected from the Smith library, oxidized/cyclized)] showed an IC50 in test [2] of 200 µM.

The values above are taken from patent US20100105876A1, “Method for the oligomerisation of peptides” (priority 1996, published 2010).
